Laboratory results taken from article doi:10.1101/2025.08.05.668778 (bioRxiv, 2025).

Legend:
factor H (intact) = target: T1, factor H (intact) (human, UniProt P08603 19-1231); experiment: ELISA; M, Enn or FbaA protein coated on wells (20 μg/ml in PBS pH 7.2, overnight 4 °C); soluble intact factor H 10 μg/ml, 1 h, RT; bound FH detected with mouse monoclonal anti-human FH and HRP anti-mouse IgG; uncoated wells subtracted; values normalized to wild type; conditions: both partners purified
T1 construct: also called FH; intact FH; source: bought: Complement Technology

crystal structure = target: the molecule itself; experiment: crystal structure

T1 sequence (P08603 19-1231): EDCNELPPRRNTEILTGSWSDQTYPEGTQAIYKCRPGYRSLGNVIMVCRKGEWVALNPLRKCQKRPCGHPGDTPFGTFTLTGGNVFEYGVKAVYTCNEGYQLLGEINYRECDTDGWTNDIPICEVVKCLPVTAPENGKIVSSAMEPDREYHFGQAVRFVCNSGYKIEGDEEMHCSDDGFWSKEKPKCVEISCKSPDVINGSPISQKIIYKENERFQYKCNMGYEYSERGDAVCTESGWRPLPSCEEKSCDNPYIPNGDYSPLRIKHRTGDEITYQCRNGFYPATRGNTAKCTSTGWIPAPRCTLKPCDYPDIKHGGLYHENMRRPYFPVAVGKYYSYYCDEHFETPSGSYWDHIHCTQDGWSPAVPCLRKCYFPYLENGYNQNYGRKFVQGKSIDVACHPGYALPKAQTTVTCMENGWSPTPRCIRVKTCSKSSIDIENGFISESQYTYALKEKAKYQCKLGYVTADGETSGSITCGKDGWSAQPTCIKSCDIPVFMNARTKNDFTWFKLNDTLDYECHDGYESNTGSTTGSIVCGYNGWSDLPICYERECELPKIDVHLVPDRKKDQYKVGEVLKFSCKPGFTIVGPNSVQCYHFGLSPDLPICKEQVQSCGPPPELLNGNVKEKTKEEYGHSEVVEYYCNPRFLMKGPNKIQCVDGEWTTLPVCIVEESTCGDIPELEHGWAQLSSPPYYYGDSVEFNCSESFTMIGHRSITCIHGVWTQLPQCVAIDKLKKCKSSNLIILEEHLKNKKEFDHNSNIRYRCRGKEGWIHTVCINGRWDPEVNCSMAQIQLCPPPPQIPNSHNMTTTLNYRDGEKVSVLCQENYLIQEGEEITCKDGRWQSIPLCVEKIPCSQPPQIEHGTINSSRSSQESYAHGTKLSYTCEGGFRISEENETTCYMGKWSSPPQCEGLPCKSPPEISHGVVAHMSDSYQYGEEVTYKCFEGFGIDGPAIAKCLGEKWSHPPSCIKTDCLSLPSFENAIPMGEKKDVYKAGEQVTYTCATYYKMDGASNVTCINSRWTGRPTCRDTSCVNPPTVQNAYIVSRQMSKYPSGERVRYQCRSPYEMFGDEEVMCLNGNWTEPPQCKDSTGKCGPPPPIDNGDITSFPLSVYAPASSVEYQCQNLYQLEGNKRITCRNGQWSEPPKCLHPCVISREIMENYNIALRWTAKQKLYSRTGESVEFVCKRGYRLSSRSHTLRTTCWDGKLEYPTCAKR

B1: FbaA (57–130), wild type (domain or fragment)
chain: NWHHIDKDGLIPLGISLEAAKEEFKKEVEESRLSEAQKETYKQKIKTAPDKDKLLFTYHSEYMTAVKDLPASTE
notes: source: E. coli BL21 (Gold), purified; not shown: His6, N-terminal, kept
binding result (factor H (intact)): binds

B2: M5 protein fragment (aa 94–175) (domain or fragment)
chain: NEGLKTEKKEHEAENDKLKQQRDTLSTQKETLEREVQNTQYNNETLKIKNGDLTKELNKTRQELANKQQESKENEKALNELL
notes: source: E. coli BL21 (Gold), purified
stoichiometry N (crystal structure): 2

B3: M6 protein, intact wild type (aa 43–452) (natural protein)
chain: RVFPRGTVENPDKARELLNKYDVENSMLQANNDKLTTENNNLTDQNKNLTTENKNLTDQNKNLTTENKNLTDQNKNLTTENKELKAEENRLTTENKGLTKKLSEAEEEAANKERENKEAIGTLKKTLDETVKDKIAKEQESKETIGTLKKTLDETVKDKIAKEQESKETIGTLKKTLDETVKDKIAKEQESKETIGTLKKILDETVKDKIAREQKSKQDIGALKQELAKKDEGNKVSEASRKGLRRDLDASREAKKQVEKDLANLTAELDKVKEEKQISDASRQGLRRDLDASREAKKQVEKALEEANSKLAALEKLNKELEESKKLTEKEKAELQAKLEAEAKALKEQLAKQAEELAKLRAGKASDSQTPDAKPGNKVVPGKGQAPQAGTKPNQNKAPMKETKRQLPST
notes: source: E. coli BL21 (Gold), purified; not shown: His6, C-terminal, kept
binding result (factor H (intact)): binds

B4: M5 protein, intact wild type (aa 43–377) (natural protein)
chain: AVTRGTINDPQRAKEALDKYELENHDLKTKNEGLKTENEGLKTENEGLKTENEGLKTEKKEHEAENDKLKQQRDTLSTQKETLEREVQNTQYNNETLKIKNGDLTKELNKTRQELANKQQESKENEKALNELLEKTVKDKIAKEQENKETIGTLKKILDETVKDKIAKEQENKETIGTLKKILDETVKDKLAKEQKSKQNIGALKQELAKKDEANKISDASRKGLRRDLDASREAKKQLEAEHQKLEEQNKISEASRKGLRRDLDASREAKKQLEAEQQKLEEQNKISEASRKGLRRDLDASREAKKQVEKALEEANSKLAALEKLNKELEESKK
notes: as for B3
binding result (factor H (intact)): binds

B5: M6 protein fragment (aa 74–157) (domain or fragment)
chain: NDKLTTENNNLTDQNKNLTTENKNLTDQNKNLTTENKNLTDQNKNLTTENKELKAEENRLTTENKGLTKKLSEAEEEAANKERE
notes: as for B2
stoichiometry N (crystal structure): 2
